One molecule from patent US20250262210A1 (TRUSTEES OF COLUMBIA UNIVERSITY IN THE CITY OF NEW YORK, published 2025) can be followed below.

In test [1] the target is T1, FKBP15 (human, UniProt Q5T1M5 1-1219, limits assumed).
T1 sequence (looked up): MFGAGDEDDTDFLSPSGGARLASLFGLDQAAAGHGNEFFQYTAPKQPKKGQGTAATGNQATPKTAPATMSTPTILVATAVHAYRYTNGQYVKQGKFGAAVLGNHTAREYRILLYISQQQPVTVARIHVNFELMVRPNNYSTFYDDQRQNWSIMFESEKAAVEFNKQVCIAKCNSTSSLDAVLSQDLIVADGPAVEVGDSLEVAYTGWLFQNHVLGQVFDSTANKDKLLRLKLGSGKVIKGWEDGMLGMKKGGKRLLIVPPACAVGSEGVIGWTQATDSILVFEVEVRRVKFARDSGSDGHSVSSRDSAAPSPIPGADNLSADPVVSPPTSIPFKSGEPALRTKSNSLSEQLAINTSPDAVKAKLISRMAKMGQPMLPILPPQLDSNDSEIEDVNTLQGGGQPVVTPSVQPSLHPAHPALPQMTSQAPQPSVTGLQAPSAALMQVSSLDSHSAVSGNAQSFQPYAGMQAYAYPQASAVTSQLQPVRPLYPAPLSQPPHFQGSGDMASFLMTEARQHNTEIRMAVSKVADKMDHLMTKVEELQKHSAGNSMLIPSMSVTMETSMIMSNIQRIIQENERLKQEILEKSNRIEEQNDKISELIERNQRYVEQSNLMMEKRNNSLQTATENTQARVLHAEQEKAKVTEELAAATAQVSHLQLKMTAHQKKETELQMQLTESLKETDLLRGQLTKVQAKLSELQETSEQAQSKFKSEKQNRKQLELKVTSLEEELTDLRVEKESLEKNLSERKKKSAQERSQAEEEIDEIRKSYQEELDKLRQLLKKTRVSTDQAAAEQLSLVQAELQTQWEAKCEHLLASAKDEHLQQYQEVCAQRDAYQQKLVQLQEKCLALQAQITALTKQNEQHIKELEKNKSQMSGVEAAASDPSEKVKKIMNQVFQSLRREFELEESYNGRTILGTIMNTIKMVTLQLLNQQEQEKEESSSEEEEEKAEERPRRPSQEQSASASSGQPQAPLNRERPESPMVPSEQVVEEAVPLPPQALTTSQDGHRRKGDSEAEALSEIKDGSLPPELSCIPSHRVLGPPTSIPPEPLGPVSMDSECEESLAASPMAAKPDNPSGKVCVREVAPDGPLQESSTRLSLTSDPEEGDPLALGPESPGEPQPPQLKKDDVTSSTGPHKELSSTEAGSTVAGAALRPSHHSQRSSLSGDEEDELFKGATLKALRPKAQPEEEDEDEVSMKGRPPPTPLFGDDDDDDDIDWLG
Briefly: IP/MS, LZTR1 R810W-FLAG, U87. A digest of the protocol:
(§1)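 Read-out: spectral counts from LC-MS/MS (Orbitrap Fusion) after MaxQuant identification. Variable modifications were Met oxidation, protein N-terminal acetylation and N/Q deamidation.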

Test [2] has as its target T2, NCAPG2 (human, UniProt Q86XI2 1-1143, limits assumed).
T2 sequence (looked up): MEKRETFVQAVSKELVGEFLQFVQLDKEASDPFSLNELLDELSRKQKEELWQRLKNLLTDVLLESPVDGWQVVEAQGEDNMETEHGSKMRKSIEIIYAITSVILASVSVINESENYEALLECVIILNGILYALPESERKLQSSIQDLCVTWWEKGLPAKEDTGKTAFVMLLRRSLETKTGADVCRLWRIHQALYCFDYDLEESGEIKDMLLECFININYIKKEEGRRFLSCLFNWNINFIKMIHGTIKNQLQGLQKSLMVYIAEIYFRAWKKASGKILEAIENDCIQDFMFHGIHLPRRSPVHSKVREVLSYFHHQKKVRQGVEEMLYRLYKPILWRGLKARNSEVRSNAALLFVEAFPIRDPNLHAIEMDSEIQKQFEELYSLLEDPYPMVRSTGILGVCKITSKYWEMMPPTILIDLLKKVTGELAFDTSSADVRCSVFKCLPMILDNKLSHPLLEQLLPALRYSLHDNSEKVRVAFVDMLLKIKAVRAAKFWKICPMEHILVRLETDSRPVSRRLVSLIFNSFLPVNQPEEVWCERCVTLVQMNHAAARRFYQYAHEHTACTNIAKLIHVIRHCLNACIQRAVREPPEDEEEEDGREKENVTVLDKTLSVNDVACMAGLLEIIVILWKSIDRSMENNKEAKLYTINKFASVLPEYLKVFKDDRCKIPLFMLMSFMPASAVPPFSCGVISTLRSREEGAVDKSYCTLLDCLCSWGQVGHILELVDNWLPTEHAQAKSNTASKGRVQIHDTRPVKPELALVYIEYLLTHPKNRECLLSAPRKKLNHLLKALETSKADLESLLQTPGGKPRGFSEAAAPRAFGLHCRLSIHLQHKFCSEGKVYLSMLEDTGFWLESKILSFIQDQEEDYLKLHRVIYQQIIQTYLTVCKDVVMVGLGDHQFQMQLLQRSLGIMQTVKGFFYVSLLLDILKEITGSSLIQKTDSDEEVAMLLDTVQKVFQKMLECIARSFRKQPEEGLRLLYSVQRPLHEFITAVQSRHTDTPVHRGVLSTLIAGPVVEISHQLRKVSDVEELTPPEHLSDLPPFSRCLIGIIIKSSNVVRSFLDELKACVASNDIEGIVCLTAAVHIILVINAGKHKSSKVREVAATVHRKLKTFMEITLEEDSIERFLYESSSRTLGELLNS
Description: IP/MS, LZTR1 R810W-FLAG, U87. In outline:
as §1

B1: LZTR1 R810W-FLAG (other, human, UniProt Q8N653 1-840, looked up)
chain: MAGPGSTGGQIGAAALAGGARSKVAPSVDFDHSCSDSVEYLTLNFGPFETVHRWRRLPPCDEFVGARRSKHTVVAYKDAIYVFGGDNGKTMLNDLLRFDVKDCSWCRAFTTGTPPAPRYHHSAVVYGSSMFVFGGYTGDIYSNSNLKNKNDLFEYKFATGQWTEWKIEGRLPVARSAHGATVYSDKLWIFAGYDGNARLNDMWTIGLQDRELTCWEEVAQSGEIPPSCCNFPVAVCRDKMFVFSGQSGAKITNNLFQFEFKDKTWTRIPTEHLLRGSPPPPQRRYGHTMVAFDRHLYVFGGAADNTLPNELHCYDVDFQTWEVVQPSSDSEVGGAEVPERACASEEVPTLTYEERVGFKKSRDVFGLDFGTTSAKQPTQPASELPSGRLFHAAAVISDAMYIFGGTVDNNIRSGEMYRFQFSCYPKCTLHEDYGRLWESRQFCDVEFVLGEKEECVQGHVAIVTARSRWLRRKITQARERLAQKLEQEAAPVPREAPGVAAGGARPPLLHVAIREAEARPFEVLMQFLYTDKIKYPRKGHVEDVLLIMDVYKLALSFQLCRLEQLCRQYIEASVDLQNVLVVCESAARLQLSQLKEHCLNFVVKESHFNQVIMMKEFERLSSPLIVEIVRRKQQPPPRTPLDQPVDIGTSLIQDMKAYLEGAGAEFCDITLLLDGHPRPAHKAILAARSSYFEAMFRSFMPEDGQVNISIGEMVPSRQAFESMLRYIYYGEVNMPPEDSLYLFAAPYYYGFYNNRLQAYCKQNLEMNVTVQNVLQILEAADKTQALDMKRHCLHIIVHQFTKVSKLPTLWSLSQQLLLDIIDSLASHISDKQCAELGADI
notes: Stably expressed in U87 cells by lentivirus; also called LZTR1-FLAG-R810W; LZTR1 RW; not shown: FLAG tag
Regarding B1, the binding result in test [1] and in test [2] was “binds” throughout.
